The text below walks through data of article PMC11985657.

This experiment addresses Fc-FGF21 from E. coli (UniProt Q9NSA1). The experiment can be described thus: BLI. For orientation: Biolayer interferometry detects binding as a change in optical thickness at a sensor tip.

The term Kd denotes the constant that tells how readily two partners part at equilibrium. High values mean lower affinity, low ones higher affinity. Take “Human KLB (from UniProt Q86Z14 1-996) (receptor)”: the Kd came to 10.1 nM. This counts as double-digit nanomolar.
